Measured values reported in patent US20250163162A1 (SYNTHEKINE, published 2025).

T1: cIL2Rg-Fc (lot#P210115SV5) (cynomolgus, UniProt A0A2K5VGJ6 23-262)
T1 construct: Named only by lot number; also called cynomolgus IL2Rg-Fc; not shown: Fc of the fusion protein
T1 sequence: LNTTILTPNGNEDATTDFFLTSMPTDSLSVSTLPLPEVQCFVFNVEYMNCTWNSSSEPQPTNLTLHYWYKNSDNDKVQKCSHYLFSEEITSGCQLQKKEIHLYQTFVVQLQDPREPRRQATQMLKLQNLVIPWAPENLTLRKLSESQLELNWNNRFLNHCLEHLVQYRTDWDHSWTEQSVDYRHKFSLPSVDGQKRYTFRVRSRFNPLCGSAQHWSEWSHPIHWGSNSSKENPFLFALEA

T2: hIL2Rg-Fc (SinoBiological cat#10555) (human, UniProt P31785 23-254, limits assumed)
T2 construct: Bought Fc fusion (SinoBiological cat#10555); P31785 is printed for hCD132 in the background; also called human IL2Rg-Fc; not shown: Fc of the bought fusion protein
T2 sequence (looked up): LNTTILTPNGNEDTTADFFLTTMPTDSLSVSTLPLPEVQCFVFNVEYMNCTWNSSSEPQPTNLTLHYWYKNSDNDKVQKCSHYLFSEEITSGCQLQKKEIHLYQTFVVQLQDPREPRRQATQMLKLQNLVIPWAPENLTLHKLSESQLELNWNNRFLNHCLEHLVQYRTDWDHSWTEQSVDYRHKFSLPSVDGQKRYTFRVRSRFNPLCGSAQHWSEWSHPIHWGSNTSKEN

B1: DR395(DR229-DR239) (bispecific antibody)
chain: QVQLQESGGGLVQPGGSLRLSCTASGFSFSSYPMTWARQAPGKGLEWVSTIASDGGSTAYAASVEGRFTISRDNAKSTLYLQLNSLKTEDTAMYYCTKGYGDGTPAPGQGTQVTVSSGGGSQVQLQESGGGSVQAGGSLRLSCTVSGYTYSSNCMGWFRQAPGKEREGVATIYTGGGNTYYADSVKGRFTISQDNAKNTVYLQMNNLKPEDTAMYYCAAEPLSRVYGGSCPTPTFDYWGQGTQVTVSSASHHHHHH
notes: Anti-hIL10Ra/hIL2Rg dual VHH with ASH6 handle; also called A2
B2: DR468(DR240-DR234) (bispecific antibody)
chain: QVQLQESGGGSVQAGGSLRLSCGASGYTYSSYCMGWFRQVPGKEREGVAVIDSDGSTSYADSVKGRFTISKDNGKNTLYLQMNSLKPEDTAMYYCAADLGHYRPPCGVLYLGMDYWGKGTQVTVSSGGGSQVQLQESGGGSVQAGGSLRLSCVASGYTFSSYCMGWFRQAPGKEREGVAALGGGSTYYADSVKGRFTISQDNAKNTLYLQMNSLKPEDTAMYYCAAAWVACLEFGGSWYDLARYKHWGQGTQVTVSSASHHHHHH
notes: Anti-hIL10Ra/hIL2Rg dual VHH with ASH6 handle; also called G8
B3: DR465(DR240-DR231) (bispecific antibody)
chain: QVQLQESGGGSVQAGGSLRLSCGASGYTYSSYCMGWFRQVPGKEREGVAVIDSDGSTSYADSVKGRFTISKDNGKNTLYLQMNSLKPEDTAMYYCAADLGHYRPPCGVLYLGMDYWGKGTQVTVSSGGGSQVQLQESGGGSVQAGGSLRLSCTASGFTFDDREMNWYRQAPGNECELVSTISSDGSTYYADSVKGRFTISQDNAKNTVYLQMDSVKPEDTAVYYCAADFMIAIQAPGAGCWGQGTQVTVSSASHHHHHH
notes: Anti-hIL10Ra/hIL2Rg dual VHH with ASH6 handle; also called H1
B4: DR392(DR229-DR236) (bispecific antibody)
chain: QVQLQESGGGLVQPGGSLRLSCTASGFSFSSYPMTWARQAPGKGLEWVSTIASDGGSTAYAASVEGRFTISRDNAKSTLYLQLNSLKTEDTAMYYCTKGYGDGTPAPGQGTQVTVSSGGGSQVQLQESGGGSVQAGGSLRLSCAASRFTYSSYCMGWFRQAPGKEREGVASIDSDGSTSYTDSVKGRFTISKDNAKNTLYLQMNSLKPEDTAMYYCALDLMSTVVPGFCGFLLSAGMDYWGKGTQVTVSSASHHHHHH
notes: Anti-hIL10Ra/hIL2Rg dual VHH with ASH6 handle; also called A7
B5: DR466(DR240-DR232) (bispecific antibody)
chain: QVQLQESGGGSVQAGGSLRLSCGASGYTYSSYCMGWFRQVPGKEREGVAVIDSDGSTSYADSVKGRFTISKDNGKNTLYLQMNSLKPEDTAMYYCAADLGHYRPPCGVLYLGMDYWGKGTQVTVSSGGGSQVQLQESGGGSVQAGGSLRLSCVASGYTSCMGWFRQAPGKEREAVATIYTRGRSIYYADSVKGRFTISQDNAKNTLYLQMNSLKPEDIAMYSCAAGGYSWSAGCEFNYWGQGTQVTVSSASHHHHHH
notes: Anti-hIL10Ra/hIL2Rg dual VHH with ASH6 handle; also called H7
B6: DR474(DR241-DR234) (bispecific antibody)
chain: QVQLQESGGGSVQAGGSLRLSCAASGYSNCSYDMTWYRQAPGKEREFVSAIHSDGSTRYADSVKGRFFISQDNAKNTVYLQMNSLKPEDTAMYYCKTDPLHCRAHGGSWYSVRANYWGQGTQVTVSSGGGSQVQLQESGGGSVQAGGSLRLSCVASGYTFSSYCMGWFRQAPGKEREGVAALGGGSTYYADSVKGRFTISQDNAKNTLYLQMNSLKPEDTAMYYCAAAWVACLEFGGSWYDLARYKHWGQGTQVTVSSASHHHHHH
notes: Anti-hIL10Ra/hIL2Rg dual VHH with ASH6 handle; also called H9
B7: DR437(DR235-DR233) (bispecific antibody)
chain: QVQLQESGGGSVQAGGSLRLSCAASRYLYSIDYMAWFRQSPGKEREPVAVIYTASGATFYPDSVKGRFTISQDNAKMTVYLQMNSLKSEDTAMYYCAAVRKTDSYLFDAQSFTYWGQGTQVTVSSGGGSQVQLQESGGGSVQAGGSLRLSCTASGFTFDDSDMGWYRQAPGNECELVSTISSDGSTYYADSVKGRFTISQDNAKNTVYLQMNSLKPEDTAVYYCAAEPRGYYSNYGGRRECNYWGQGTQVTVSSASHHHHHH
notes: Anti-hIL10Ra/hIL2Rg dual VHH with ASH6 handle; also called D6
B8: DR438(DR235-DR234) (bispecific antibody)
chain: QVQLQESGGGSVQAGGSLRLSCAASRYLYSIDYMAWFRQSPGKEREPVAVIYTASGATFYPDSVKGRFTISQDNAKMTVYLQMNSLKSEDTAMYYCAAVRKTDSYLFDAQSFTYWGQGTQVTVSSGGGSQVQLQESGGGSVQAGGSLRLSCVASGYTFSSYCMGWFRQAPGKEREGVAALGGGSTYYADSVKGRFTISQDNAKNTLYLQMNSLKPEDTAMYYCAAAWVACLEFGGSWYDLARYKHWGQGTQVTVSSASHHHHHH
notes: Anti-hIL10Ra/hIL2Rg dual VHH with ASH6 handle; also called D12
B9: DR444(DR236-DR234) (bispecific antibody)
chain: QVQLQESGGGSVQAGGSLRLSCAASRFTYSSYCMGWFRQAPGKEREGVASIDSDGSTSYTDSVKGRFTISKDNAKNTLYLQMNSLKPEDTAMYYCALDLMSTVVPGFCGFLLSAGMDYWGKGTQVTVSSGGGSQVQLQESGGGSVQAGGSLRLSCVASGYTFSSYCMGWFRQAPGKEREGVAALGGGSTYYADSVKGRFTISQDNAKNTLYLQMNSLKPEDTAMYYCAAAWVACLEFGGSWYDLARYKHWGQGTQVTVSSASHHHHHH
notes: Anti-hIL10Ra/hIL2Rg dual VHH with ASH6 handle; also called E8
B10: DR441(DR236-DR231) (bispecific antibody)
chain: QVQLQESGGGSVQAGGSLRLSCAASRFTYSSYCMGWFRQAPGKEREGVASIDSDGSTSYTDSVKGRFTISKDNAKNTLYLQMNSLKPEDTAMYYCALDLMSTVVPGFCGFLLSAGMDYWGKGTQVTVSSGGGSQVQLQESGGGSVQAGGSLRLSCTASGFTFDDREMNWYRQAPGNECELVSTISSDGSTYYADSVKGRFTISQDNAKNTVYLQMDSVKPEDTAVYYCAADFMIAIQAPGAGCWGQGTQVTVSSASHHHHHH
notes: Anti-hIL10Ra/hIL2Rg dual VHH with ASH6 handle; also called F1
B11: DR449(DR237-DR233) (bispecific antibody)
chain: QVQLQESGGGSVQAGGSLRLSCAASGYTYSMYCMGWFRQAPGKEREGVAQINSDGSTSYADSVKGRFTISKDNAKNTLYLQMNSLKPEDTAMYYCAADSRVYGGSWYERLCGPYTYEYNYWGQGTQVTVSSGGGSQVQLQESGGGSVQAGGSLRLSCTASGFTFDDSDMGWYRQAPGNECELVSTISSDGSTYYADSVKGRFTISQDNAKNTVYLQMNSLKPEDTAVYYCAAEPRGYYSNYGGRRECNYWGQGTQVTVSSASHHHHHH
notes: Anti-hIL10Ra/hIL2Rg dual VHH with ASH6 handle; also called F3

Molecular target: T1, cIL2Rg-Fc (lot#P210115SV5)
Test: SPR (Biacore T200), Fc-fused ligand captured on chip, dual VHH as analyte, 1:1 Langmuir fit
Method: (§1) All experiments were conducted in 10 mM Hepes, 150 mM NaCl, 0.05% (v/v) Polysorbate 20 (PS20) and 3 mM EDTA (HBS-EP+ buffer) on a Biacore T200 instrument equipped with Protein A or CAP biotin chips (Cytiva). For experiments on Protein A chips, Fc-fused ligands were flowed at 5 μl/min for variable time ranging from 18 to 300 seconds, reaching the capture loads listed in the tables below. Following ligand capture, injections of a 2-fold dilution series of analyte typically comprising at least five concentrations between 1 μM and 1 nM were performed in either high performance or single cycle kinetics mode. Surface regeneration was achieved by flowing 10 mM glycine-HCl, pH 1.5 (60 seconds, […]). Buffer-subtracted sensograms were processed with Biacore T200 Evaluation Software and globally fit with a 1:1 Langmuir binding model (bulk shift set to zero) to extract kinetics and affinity constants (kₐ, kd, KD). RMAX<100 RU indicates surface density compatible with kinetics analysis. Experiments on CAP chips were performed as described above with an additional capture step of Biotin CAPture reagent (10 seconds, 40 uL/min) performed prior to capture of biotinylated ligands. Calculated Rmax were generated using the equation Rmax=Load (RU) x valency of ligand x (Molecular weight of analyte/Molecular weight of ligand. Surface activity was defined as the ratio experimental/calculated Rmax. The results of these experiments are provided in below for sample information and experimental results.

Row | Binder | Kd [nM] | koff [s⁻¹] | kon [M⁻¹ s⁻¹]
1 | B1 | 3.2 | 0.0026 | 800000
2 | B2 | 4.3 | 0.001 | 240000
3 | B3 | 3.2 | 0.0022 | 700000
4 | B4 | 2.4 | 0.004 | 1.6e+06
5 | B5 | 49.9 | 0.0037 | 75000
6 | B6 | 2.9 | 0.00093 | 330000
7 | B7 | 7.8 | 0.0022 | 290000
8 | B8 | 2.2 | 0.0012 | 560000
9 | B9 | 5.3 | 0.00077 | 150000
10 | B10 | 8.3 | 0.0028 | 340000
11 | B11 | 22.6 | 0.0048 | 210000

Molecular target: T2, hIL2Rg-Fc (SinoBiological cat#10555)
Test: as above
Method: as §1

Row | Binder | Kd [nM] | koff [s⁻¹] | kon [M⁻¹ s⁻¹]
12 | B1 | 3.9 | 0.0078 | 2e+06
13 | B2 | 8.5 | 0.0015 | 170000
14 | B3 | 14.5 | 0.0037 | 250000
15 | B4 | 3.6 | 0.0062 | 1.7e+06
16 | B5 | 20.8 | 0.026 | 1.2e+06
17 | B6 | 3.2 | 0.00099 | 310000
18 | B7 | 27.5 | 0.0051 | 190000
19 | B8 | 2.7 | 0.001 | 390000
20 | B9 | 6.9 | 0.0026 | 380000
21 | B10 | 11.1 | 0.0053 | 470000
22 | B11 | 30.4 | 0.0065 | 220000

Molecular target: T1, cIL2Rg-Fc (lot#P210115SV5)
Test: SPR (Biacore T200); ratio experimental/calculated Rmax

Row | Binder | Surface Activity [%]
23 | B1 | 2
24 | B2 | 1
25 | B3 | 1
26 | B4 | 1
27 | B5 | 9
28 | B6 | 2
29 | B7 | 1
30 | B8 | 1
31 | B9 | 2
32 | B10 | 1
33 | B11 | 1

Molecular target: T2, hIL2Rg-Fc (SinoBiological cat#10555)
Test: as above

Row | Binder | Surface Activity [%]
34 | B1 | 5
35 | B2 | 6
36 | B3 | 4
37 | B4 | 4
38 | B5 | 6
39 | B6 | 6
40 | B7 | 3
41 | B8 | 5
42 | B9 | 5
43 | B10 | 4
44 | B11 | 2
